# Measured values taken from patent CN104774268A.
# Assays:
# [1] = biological target: EGFR on EGFR-positive cells (HT29; HCT116; MDA-MB-453) (human) (UniProt P00533); test: flow cytometry on HT29 cells, MFI titration fitted in GraphPad Prism
# [2] = biological target: CD3 on CD3-positive Jurkat cells (human); test: flow cytometry on Jurkat cells, MFI titration fitted in GraphPad Prism
Kd [1] [nM],Kd [2] [nM],Substance
0.65,14.4,"EGFR×CD3 MSBODY M1003 (monovalent unit from Vectibix, single-chain unit anti-CD3 L2K ScFv-Fc) (bispecific antibody)"
0.65,8.73,"EGFR×CD3 MSBODY M1001 (monovalent unit from Erbitux, single-chain unit anti-CD3 L2K ScFv-Fc) (bispecific antibody)"
